The text below walks through data of patent publication US20180155451A1 (published 2018).

This assay addresses T1, FcγRIa extracellular domain with C-terminal His tag (human, UniProt P12314 16-292).
T1 construct: extracellular domain; Expressed in FreeStyle293 cells; used as analyte in Biacore; also called FcgRI; 1a; not shown: His tag at the C terminus
Nature of the assay: SPR (Biacore), captured antibody, FcγRIa analyte; relative to GpH7-B3/GpL16-k0 = 100. Background: Surface plasmon resonance follows binding to a sensor surface in real time, without labels.

T1 sequence (P12314 16-292): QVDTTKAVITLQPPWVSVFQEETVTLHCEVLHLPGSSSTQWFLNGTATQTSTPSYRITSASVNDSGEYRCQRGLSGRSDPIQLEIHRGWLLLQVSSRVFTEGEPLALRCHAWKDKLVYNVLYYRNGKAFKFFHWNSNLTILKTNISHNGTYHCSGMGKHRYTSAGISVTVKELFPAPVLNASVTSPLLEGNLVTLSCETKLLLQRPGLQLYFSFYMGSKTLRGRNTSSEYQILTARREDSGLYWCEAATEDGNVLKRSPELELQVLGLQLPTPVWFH

B1: GpH7-B3 variant (S337_04F)/GpL16-k0 (antibody, human IgG1, kappa)
heavy: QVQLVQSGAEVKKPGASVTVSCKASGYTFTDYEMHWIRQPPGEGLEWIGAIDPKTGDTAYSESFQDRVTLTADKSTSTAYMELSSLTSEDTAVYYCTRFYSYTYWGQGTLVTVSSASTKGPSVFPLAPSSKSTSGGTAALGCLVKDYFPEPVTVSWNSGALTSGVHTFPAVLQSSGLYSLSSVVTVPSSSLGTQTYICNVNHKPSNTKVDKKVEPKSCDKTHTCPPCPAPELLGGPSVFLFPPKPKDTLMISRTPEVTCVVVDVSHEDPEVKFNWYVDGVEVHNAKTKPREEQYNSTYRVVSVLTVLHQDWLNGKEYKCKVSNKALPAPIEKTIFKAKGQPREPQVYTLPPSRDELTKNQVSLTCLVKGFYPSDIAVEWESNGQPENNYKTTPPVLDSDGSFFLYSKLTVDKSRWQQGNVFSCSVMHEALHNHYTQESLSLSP
light: DIVMTQSPLSLPVTPGEPASISCQASESLVHSNRNTYLHWYLQKPGQSPQLLIYKVSNRFSGVPDRFSGSGSGTDFTLKISRVEAEDVGVYYCSQNTHVPPTFGQGTKVEIERTVAAPSVFIFPPSDEQLKSGTASVVCLLNNFYPREAKVQWKVDNALQSGNSQESVTEQDSKDSTYSLSSTLTLSKADYEKHKVYACEVTHQGLSSPVTKSFNRGEC
notes: Homodimerized; both H chains altered; also called Ho Ab S337_04F
As for B1, the Ho/Con_1a was 105 % of control.

B2: GpH7-B3 variant (A330_20W)/GpL16-k0 (antibody, human IgG1, kappa)
heavy: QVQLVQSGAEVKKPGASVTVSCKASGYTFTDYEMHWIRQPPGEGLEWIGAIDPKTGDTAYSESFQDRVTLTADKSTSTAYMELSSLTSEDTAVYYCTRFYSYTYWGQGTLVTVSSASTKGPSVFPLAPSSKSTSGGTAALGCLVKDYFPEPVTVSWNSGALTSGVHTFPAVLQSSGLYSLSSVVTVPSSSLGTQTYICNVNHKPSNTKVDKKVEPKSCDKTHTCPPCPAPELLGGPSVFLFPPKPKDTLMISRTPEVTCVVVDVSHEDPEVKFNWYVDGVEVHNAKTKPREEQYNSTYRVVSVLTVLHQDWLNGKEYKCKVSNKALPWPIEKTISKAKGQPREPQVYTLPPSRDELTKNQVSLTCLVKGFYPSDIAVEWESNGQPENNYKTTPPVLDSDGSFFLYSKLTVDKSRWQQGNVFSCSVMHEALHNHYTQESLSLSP
light: DIVMTQSPLSLPVTPGEPASISCQASESLVHSNRNTYLHWYLQKPGQSPQLLIYKVSNRFSGVPDRFSGSGSGTDFTLKISRVEAEDVGVYYCSQNTHVPPTFGQGTKVEIERTVAAPSVFIFPPSDEQLKSGTASVVCLLNNFYPREAKVQWKVDNALQSGNSQESVTEQDSKDSTYSLSSTLTLSKADYEKHKVYACEVTHQGLSSPVTKSFNRGEC
notes: Homodimerized; both H chains altered; also called Ho Ab A330_20W
Turning to B2, the Ho/Con_1a was 108 % of control.

B3: GpH7-B3 variant (H268_09D)/GpL16-k0 (antibody, human IgG1, kappa)
heavy: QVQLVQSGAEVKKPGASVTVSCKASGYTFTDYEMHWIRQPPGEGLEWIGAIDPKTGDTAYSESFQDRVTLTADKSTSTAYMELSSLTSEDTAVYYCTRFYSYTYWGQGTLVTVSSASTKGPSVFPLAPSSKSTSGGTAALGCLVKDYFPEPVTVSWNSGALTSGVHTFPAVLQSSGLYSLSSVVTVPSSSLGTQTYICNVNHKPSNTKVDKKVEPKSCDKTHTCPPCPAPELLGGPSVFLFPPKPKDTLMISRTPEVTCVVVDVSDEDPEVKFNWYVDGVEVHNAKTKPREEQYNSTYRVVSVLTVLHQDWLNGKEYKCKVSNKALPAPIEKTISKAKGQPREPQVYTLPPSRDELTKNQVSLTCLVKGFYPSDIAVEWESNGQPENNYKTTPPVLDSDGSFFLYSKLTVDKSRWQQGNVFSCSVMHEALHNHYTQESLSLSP
light: DIVMTQSPLSLPVTPGEPASISCQASESLVHSNRNTYLHWYLQKPGQSPQLLIYKVSNRFSGVPDRFSGSGSGTDFTLKISRVEAEDVGVYYCSQNTHVPPTFGQGTKVEIERTVAAPSVFIFPPSDEQLKSGTASVVCLLNNFYPREAKVQWKVDNALQSGNSQESVTEQDSKDSTYSLSSTLTLSKADYEKHKVYACEVTHQGLSSPVTKSFNRGEC
notes: Homodimerized; both H chains altered; also called Ho Ab H268_09D
For B3, the Ho/Con_1a is 110 % of control.

B4: GpH7-B3 variant (H268_01G)/GpL16-k0 (antibody, human IgG1, kappa)
heavy: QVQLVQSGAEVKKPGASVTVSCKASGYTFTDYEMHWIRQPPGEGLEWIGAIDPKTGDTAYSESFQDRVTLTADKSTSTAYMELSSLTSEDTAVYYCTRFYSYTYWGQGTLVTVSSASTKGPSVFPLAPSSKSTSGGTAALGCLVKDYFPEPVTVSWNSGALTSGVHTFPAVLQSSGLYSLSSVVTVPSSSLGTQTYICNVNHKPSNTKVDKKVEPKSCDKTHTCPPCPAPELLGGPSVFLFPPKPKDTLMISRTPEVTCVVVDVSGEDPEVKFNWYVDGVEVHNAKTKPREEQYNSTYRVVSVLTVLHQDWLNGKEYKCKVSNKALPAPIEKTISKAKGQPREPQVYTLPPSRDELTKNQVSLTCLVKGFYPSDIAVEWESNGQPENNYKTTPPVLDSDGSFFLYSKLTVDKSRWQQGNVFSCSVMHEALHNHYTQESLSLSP
light: DIVMTQSPLSLPVTPGEPASISCQASESLVHSNRNTYLHWYLQKPGQSPQLLIYKVSNRFSGVPDRFSGSGSGTDFTLKISRVEAEDVGVYYCSQNTHVPPTFGQGTKVEIERTVAAPSVFIFPPSDEQLKSGTASVVCLLNNFYPREAKVQWKVDNALQSGNSQESVTEQDSKDSTYSLSSTLTLSKADYEKHKVYACEVTHQGLSSPVTKSFNRGEC
notes: Homodimerized; both H chains altered; also called Ho Ab H268_01G
In the case of B4, the Ho/Con_1a is 108 % of control.

B5: GpH7-B3 variant (S337_09D)/GpL16-k0 (antibody, human IgG1, kappa)
heavy: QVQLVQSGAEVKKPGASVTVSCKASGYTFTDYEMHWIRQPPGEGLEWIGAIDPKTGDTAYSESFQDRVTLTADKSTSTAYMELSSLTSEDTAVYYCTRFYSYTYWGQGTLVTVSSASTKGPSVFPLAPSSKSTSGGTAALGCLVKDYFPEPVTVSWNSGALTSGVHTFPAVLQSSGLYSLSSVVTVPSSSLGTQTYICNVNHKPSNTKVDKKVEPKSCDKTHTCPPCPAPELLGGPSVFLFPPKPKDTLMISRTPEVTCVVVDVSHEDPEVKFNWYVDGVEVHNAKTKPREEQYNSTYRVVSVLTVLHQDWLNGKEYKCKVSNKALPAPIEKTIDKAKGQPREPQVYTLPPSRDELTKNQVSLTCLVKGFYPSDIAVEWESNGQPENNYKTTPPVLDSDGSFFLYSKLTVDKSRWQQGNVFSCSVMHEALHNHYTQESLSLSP
light: DIVMTQSPLSLPVTPGEPASISCQASESLVHSNRNTYLHWYLQKPGQSPQLLIYKVSNRFSGVPDRFSGSGSGTDFTLKISRVEAEDVGVYYCSQNTHVPPTFGQGTKVEIERTVAAPSVFIFPPSDEQLKSGTASVVCLLNNFYPREAKVQWKVDNALQSGNSQESVTEQDSKDSTYSLSSTLTLSKADYEKHKVYACEVTHQGLSSPVTKSFNRGEC
notes: Homodimerized; both H chains altered; also called Ho Ab S337_09D
With B5, the Ho/Con_1a was 106 % of control.

B6: GpH7-B3 variant (S337_08L)/GpL16-k0 (antibody, human IgG1, kappa)
heavy: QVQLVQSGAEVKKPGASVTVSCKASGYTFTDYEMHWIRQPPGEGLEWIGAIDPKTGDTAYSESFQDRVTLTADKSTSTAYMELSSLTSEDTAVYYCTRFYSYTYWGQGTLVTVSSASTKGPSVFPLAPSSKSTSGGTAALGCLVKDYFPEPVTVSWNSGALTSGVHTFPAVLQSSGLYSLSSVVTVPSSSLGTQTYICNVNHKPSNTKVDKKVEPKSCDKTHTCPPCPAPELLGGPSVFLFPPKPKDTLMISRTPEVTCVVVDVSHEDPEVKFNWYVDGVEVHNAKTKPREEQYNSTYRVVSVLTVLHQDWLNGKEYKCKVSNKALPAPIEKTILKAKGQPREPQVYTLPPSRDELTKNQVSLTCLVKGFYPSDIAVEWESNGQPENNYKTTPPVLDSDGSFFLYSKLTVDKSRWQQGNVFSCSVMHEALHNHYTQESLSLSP
light: DIVMTQSPLSLPVTPGEPASISCQASESLVHSNRNTYLHWYLQKPGQSPQLLIYKVSNRFSGVPDRFSGSGSGTDFTLKISRVEAEDVGVYYCSQNTHVPPTFGQGTKVEIERTVAAPSVFIFPPSDEQLKSGTASVVCLLNNFYPREAKVQWKVDNALQSGNSQESVTEQDSKDSTYSLSSTLTLSKADYEKHKVYACEVTHQGLSSPVTKSFNRGEC
notes: Homodimerized; both H chains altered; also called Ho Ab S337_08L
Regarding B6, the Ho/Con_1a was 105 % of control.

B7: GpH7-B3 variant (H268_18N)/GpL16-k0 (antibody, human IgG1, kappa)
heavy: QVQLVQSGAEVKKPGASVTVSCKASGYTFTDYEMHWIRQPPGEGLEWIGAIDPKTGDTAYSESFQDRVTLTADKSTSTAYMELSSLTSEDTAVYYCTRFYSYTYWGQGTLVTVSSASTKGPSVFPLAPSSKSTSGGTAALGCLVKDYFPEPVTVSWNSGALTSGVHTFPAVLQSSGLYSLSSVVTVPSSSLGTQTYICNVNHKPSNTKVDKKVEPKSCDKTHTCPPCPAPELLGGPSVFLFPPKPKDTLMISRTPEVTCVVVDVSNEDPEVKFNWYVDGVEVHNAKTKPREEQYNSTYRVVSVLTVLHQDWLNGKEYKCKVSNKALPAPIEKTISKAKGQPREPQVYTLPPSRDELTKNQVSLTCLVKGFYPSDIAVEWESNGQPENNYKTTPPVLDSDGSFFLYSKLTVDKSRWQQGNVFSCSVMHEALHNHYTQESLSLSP
light: DIVMTQSPLSLPVTPGEPASISCQASESLVHSNRNTYLHWYLQKPGQSPQLLIYKVSNRFSGVPDRFSGSGSGTDFTLKISRVEAEDVGVYYCSQNTHVPPTFGQGTKVEIERTVAAPSVFIFPPSDEQLKSGTASVVCLLNNFYPREAKVQWKVDNALQSGNSQESVTEQDSKDSTYSLSSTLTLSKADYEKHKVYACEVTHQGLSSPVTKSFNRGEC
notes: Homodimerized; both H chains altered; also called Ho Ab H268_18N
Take B7: the Ho/Con_1a is 108 % of control.

B8: GpH7-B3 variant (H268_10E)/GpL16-k0 (antibody, human IgG1, kappa)
heavy: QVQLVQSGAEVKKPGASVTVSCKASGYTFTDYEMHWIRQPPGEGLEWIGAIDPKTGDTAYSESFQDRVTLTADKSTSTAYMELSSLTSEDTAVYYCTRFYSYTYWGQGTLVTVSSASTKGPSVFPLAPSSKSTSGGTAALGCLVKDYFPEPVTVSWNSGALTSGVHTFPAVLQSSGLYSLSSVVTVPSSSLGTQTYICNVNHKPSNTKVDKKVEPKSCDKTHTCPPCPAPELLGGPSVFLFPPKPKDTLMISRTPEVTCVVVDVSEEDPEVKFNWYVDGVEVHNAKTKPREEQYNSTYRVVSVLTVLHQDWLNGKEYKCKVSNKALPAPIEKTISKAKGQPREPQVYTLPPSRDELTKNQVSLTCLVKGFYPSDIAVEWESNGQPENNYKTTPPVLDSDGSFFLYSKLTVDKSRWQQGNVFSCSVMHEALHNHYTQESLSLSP
light: DIVMTQSPLSLPVTPGEPASISCQASESLVHSNRNTYLHWYLQKPGQSPQLLIYKVSNRFSGVPDRFSGSGSGTDFTLKISRVEAEDVGVYYCSQNTHVPPTFGQGTKVEIERTVAAPSVFIFPPSDEQLKSGTASVVCLLNNFYPREAKVQWKVDNALQSGNSQESVTEQDSKDSTYSLSSTLTLSKADYEKHKVYACEVTHQGLSSPVTKSFNRGEC
notes: Homodimerized; both H chains altered; also called Ho Ab H268_10E
For the molecule B8, the Ho/Con_1a was 112 % of control.

B9: GpH7-B3 variant (I336_08L)/GpL16-k0 (antibody, human IgG1, kappa)
heavy: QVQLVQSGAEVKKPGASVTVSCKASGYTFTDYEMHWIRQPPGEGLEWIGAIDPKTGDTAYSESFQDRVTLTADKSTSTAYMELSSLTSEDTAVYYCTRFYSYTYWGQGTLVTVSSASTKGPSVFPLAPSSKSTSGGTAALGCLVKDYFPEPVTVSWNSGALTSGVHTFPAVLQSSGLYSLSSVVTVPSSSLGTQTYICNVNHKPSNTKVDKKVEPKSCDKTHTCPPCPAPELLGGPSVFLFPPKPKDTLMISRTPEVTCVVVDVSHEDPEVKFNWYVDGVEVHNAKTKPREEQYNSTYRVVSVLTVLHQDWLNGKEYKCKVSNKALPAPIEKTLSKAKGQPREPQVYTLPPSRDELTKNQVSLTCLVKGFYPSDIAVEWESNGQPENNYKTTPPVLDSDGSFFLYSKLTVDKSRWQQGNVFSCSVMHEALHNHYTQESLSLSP
light: DIVMTQSPLSLPVTPGEPASISCQASESLVHSNRNTYLHWYLQKPGQSPQLLIYKVSNRFSGVPDRFSGSGSGTDFTLKISRVEAEDVGVYYCSQNTHVPPTFGQGTKVEIERTVAAPSVFIFPPSDEQLKSGTASVVCLLNNFYPREAKVQWKVDNALQSGNSQESVTEQDSKDSTYSLSSTLTLSKADYEKHKVYACEVTHQGLSSPVTKSFNRGEC
notes: Homodimerized; both H chains altered; also called Ho Ab I336_08L
As for B9, the Ho/Con_1a is 109 % of control.

B10: GpH7-B3 variant (I336_12R)/GpL16-k0 (antibody, human IgG1, kappa)
heavy: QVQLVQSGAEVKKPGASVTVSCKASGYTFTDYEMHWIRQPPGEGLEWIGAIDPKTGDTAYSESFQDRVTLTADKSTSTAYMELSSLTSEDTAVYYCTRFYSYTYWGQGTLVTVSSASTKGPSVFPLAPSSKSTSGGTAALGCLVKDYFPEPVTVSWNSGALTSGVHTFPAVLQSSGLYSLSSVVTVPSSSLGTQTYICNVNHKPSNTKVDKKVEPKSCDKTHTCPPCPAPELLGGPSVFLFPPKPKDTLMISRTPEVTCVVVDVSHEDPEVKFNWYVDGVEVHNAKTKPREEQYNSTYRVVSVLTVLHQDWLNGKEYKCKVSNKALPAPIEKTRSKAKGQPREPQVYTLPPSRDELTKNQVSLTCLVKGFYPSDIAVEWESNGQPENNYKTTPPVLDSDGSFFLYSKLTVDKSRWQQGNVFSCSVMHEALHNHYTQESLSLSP
light: DIVMTQSPLSLPVTPGEPASISCQASESLVHSNRNTYLHWYLQKPGQSPQLLIYKVSNRFSGVPDRFSGSGSGTDFTLKISRVEAEDVGVYYCSQNTHVPPTFGQGTKVEIERTVAAPSVFIFPPSDEQLKSGTASVVCLLNNFYPREAKVQWKVDNALQSGNSQESVTEQDSKDSTYSLSSTLTLSKADYEKHKVYACEVTHQGLSSPVTKSFNRGEC
notes: Homodimerized; both H chains altered; also called Ho Ab I336_12R
For B10, the Ho/Con_1a is 109 % of control.

B11: GpH7-B3 variant (I336_09D)/GpL16-k0 (antibody, human IgG1, kappa)
heavy: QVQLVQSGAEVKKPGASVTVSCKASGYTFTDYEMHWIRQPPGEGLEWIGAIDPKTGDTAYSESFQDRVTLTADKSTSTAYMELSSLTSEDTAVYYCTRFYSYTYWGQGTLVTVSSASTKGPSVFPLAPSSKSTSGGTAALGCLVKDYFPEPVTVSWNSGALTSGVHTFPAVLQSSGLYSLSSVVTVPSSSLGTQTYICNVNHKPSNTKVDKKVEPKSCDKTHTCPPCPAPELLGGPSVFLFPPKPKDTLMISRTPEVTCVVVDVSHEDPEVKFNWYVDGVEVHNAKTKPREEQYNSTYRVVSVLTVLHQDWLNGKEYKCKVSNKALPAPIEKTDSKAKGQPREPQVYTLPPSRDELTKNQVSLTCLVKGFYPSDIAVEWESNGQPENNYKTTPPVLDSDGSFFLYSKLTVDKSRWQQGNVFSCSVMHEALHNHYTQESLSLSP
light: DIVMTQSPLSLPVTPGEPASISCQASESLVHSNRNTYLHWYLQKPGQSPQLLIYKVSNRFSGVPDRFSGSGSGTDFTLKISRVEAEDVGVYYCSQNTHVPPTFGQGTKVEIERTVAAPSVFIFPPSDEQLKSGTASVVCLLNNFYPREAKVQWKVDNALQSGNSQESVTEQDSKDSTYSLSSTLTLSKADYEKHKVYACEVTHQGLSSPVTKSFNRGEC
notes: Homodimerized; both H chains altered; also called Ho Ab I336_09D
On to B11, for which the Ho/Con_1a is 108 % of control.
